In article PMC6536502, “Structural insights into DNA recognition by AimR of the arbitrium communication system in the SPbeta phage” (Cell Discovery, 2019):

T1: AimR-V129C (Bacillus phage SPbeta, UniProt O64094 1-386, C71S;C107S;C213S;C275S;C304S;C347S;V129C)
T1 sequence: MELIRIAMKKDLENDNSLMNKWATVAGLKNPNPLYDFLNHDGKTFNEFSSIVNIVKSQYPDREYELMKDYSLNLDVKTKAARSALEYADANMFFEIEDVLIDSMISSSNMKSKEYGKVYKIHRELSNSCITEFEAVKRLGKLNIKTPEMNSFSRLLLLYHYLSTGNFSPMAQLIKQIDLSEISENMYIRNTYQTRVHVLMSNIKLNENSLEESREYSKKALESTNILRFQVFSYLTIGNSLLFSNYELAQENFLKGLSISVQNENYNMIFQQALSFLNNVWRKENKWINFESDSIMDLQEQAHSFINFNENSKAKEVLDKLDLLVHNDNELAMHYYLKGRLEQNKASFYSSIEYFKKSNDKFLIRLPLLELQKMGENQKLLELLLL

T2: AimR (Bacillus phage SPbeta, UniProt O64094 1-386)
T2 sequence: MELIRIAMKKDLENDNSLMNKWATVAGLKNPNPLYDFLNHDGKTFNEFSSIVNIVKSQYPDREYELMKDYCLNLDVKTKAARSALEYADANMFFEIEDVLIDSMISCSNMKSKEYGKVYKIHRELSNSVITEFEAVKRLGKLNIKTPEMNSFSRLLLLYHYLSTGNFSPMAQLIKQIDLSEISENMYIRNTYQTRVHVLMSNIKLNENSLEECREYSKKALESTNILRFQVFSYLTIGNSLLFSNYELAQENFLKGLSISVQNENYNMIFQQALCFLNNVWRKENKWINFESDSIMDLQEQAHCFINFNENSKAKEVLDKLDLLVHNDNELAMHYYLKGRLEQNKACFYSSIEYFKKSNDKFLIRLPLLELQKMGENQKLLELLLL

B1: AimR protein from the SPbeta phage, full length, wild type (natural protein, UniProt O64094 1-386, looked up)
chain: MELIRIAMKKDLENDNSLMNKWATVAGLKNPNPLYDFLNHDGKTFNEFSSIVNIVKSQYPDREYELMKDYCLNLDVKTKAARSALEYADANMFFEIEDVLIDSMISCSNMKSKEYGKVYKIHRELSNSVITEFEAVKRLGKLNIKTPEMNSFSRLLLLYHYLSTGNFSPMAQLIKQIDLSEISENMYIRNTYQTRVHVLMSNIKLNENSLEECREYSKKALESTNILRFQVFSYLTIGNSLLFSNYELAQENFLKGLSISVQNENYNMIFQQALCFLNNVWRKENKWINFESDSIMDLQEQAHCFINFNENSKAKEVLDKLDLLVHNDNELAMHYYLKGRLEQNKACFYSSIEYFKKSNDKFLIRLPLLELQKMGENQKLLELLLL
notes: AimR of Bacillus phage SPbeta, full length (DBD residues 1-48, CTD residues 49-386), codon-optimized cDNA in pET21b; also called SPbeta AimR; wild-type AimR; source: E. coli BL21 (DE3), purified (Ni-NTA, anion exchange Source 15Q, SEC Superdex-200)

Key:
[1] = molecular target: B1; assay: crystal structure; AimR (~270 µM) incubated with arbitrium peptide GMPRGA (2.7 mM), PDB 6JG9; conditions: both partners purified
AimR-V129C = molecular target: T1, AimR-V129C; assay: smFRET; 1 uM DNA; EMSA: 25 mM Tris-HCl pH 8.0, 150 mM NaCl, 5 mM MgCl2, 5 mM DTT, 0.1 mg/ml BSA, 10% glycerol, 50 ug/ml salmon sperm DNA, 4 C, 15 min; smFRET: 20 mM phosphate pH; conditions: protein: recombinant; tags: 6xHis removed by drICE; Alexa Fluor 488 and Cy5 on C129; chain copies: 2
AimR = molecular target: T2, AimR; assay: EMSA; 5 mM Mg2+; EMSA: 25 mM Tris-HCl pH 8.0, 150 mM NaCl, 5 mM MgCl2, 5 mM DTT, 0.1 mg/ml BSA, 10% glycerol, 50 ug/ml salmon sperm DNA, 4 C, 15 min; smFRET: 20 mM phosphate pH; conditions: protein: recombinant; tags: C-terminal 8xHis; chain copies: 2; label: FAM
[2] = molecular target: the molecule itself; assay: crystal structure; full-length AimR with the 31 bp DNA fragment and 5 mM MgCl2, 2.10 Å, PDB 6JG8
[3] = molecular target: the molecule itself; assay: cross-linking; disulfide cross-linking of Cys166 by o-phenanthroline copper complex, AimR-N166C ~1 mg/ml, room temperature 30 min, nonreducing SDS-PAGE; alone or with DNA, unrelated peptide or arbitrium peptide
[4] = molecular target: the molecule itself; assay: FRET or BRET; single-molecule FRET in solution between Alexa488 and Cy5 on Cys129 of the protomers, ~150 pM labelled AimR V129C, 25 °C, pH 7.4, 20 mM phosphate, 100 mM NaCl, 0.01% Tween 20; peptides titrated in

Binder | binding signal (AimR) | also measured
GMPRGA (mature arbitrium hexapeptide of the SPbeta phage, cut from the precursor encoded by the aimP gene; also called arbitrium hexapeptide; GMPRGA peptide; source: synthetic peptide, bought: GLS Biochem) [arbitrium peptide GMPRGA] | – | binding result [1]: binds
37 bp DNA (dsDNA) DNA 1: ATCACTTAAATATTAGGTTTTAATAACATCTAGTGAT DNA 2: ATCACTAGATGTTATTAAAACCTAATATTTAAGTGAT | – | binding result (AimR-V129C): binds
C2A (dsDNA) DNA 1: AATTAAATATTAGGTTTTAATAACATCTAGT DNA 2: ACTAGATGTTATTAAAACCTAATATTTAATT | ~8 fold lower binding than WT DNA | –
A1G/T31'C (dsDNA) DNA 1: GCTTAAATATTAGGTTTTAATAACATCTAGT DNA 2: ACTAGATGTTATTAAAACCTAATATTTAAGC | ~19 fold lower affinity than WT DNA | –
A1T/T31'A (dsDNA) DNA 1: TCTTAAATATTAGGTTTTAATAACATCTAGT DNA 2: ACTAGATGTTATTAAAACCTAATATTTAAGA | ~7 fold lower affinity than WT DNA | –
C2G (dsDNA) DNA 1: AGTTAAATATTAGGTTTTAATAACATCTAGT DNA 2: ACTAGATGTTATTAAAACCTAATATTTAACT | ~9 fold lower binding than WT DNA | –
C2T (dsDNA) DNA 1: ATTTAAATATTAGGTTTTAATAACATCTAGT DNA 2: ACTAGATGTTATTAAAACCTAATATTTAAAT | ~42 fold lower binding than WT DNA | –
B1 | – | stoichiometry N [2]: 2
AimR-N166C (C71S/C107S/C213S/C275S/C304S/C347S/N166C) (natural protein, SPbeta phage, UniProt O64094 1-386, looked up, AimR of Bacillus phage SPbeta, full length with six Cys-to-Ser changes and N166C, in pET15b; His tag removed with drICE as for the other mutant proteins; source: E. coli BL21 (DE3), purified as the mutant proteins (gel filtration)) MELIRIAMKKDLENDNSLMNKWATVAGLKNPNPLYDFLNHDGKTFNEFSSIVNIVKSQYPDREYELMKDYSLNLDVKTKAARSALEYADANMFFEIEDVLIDSMISSSNMKSKEYGKVYKIHRELSNSVITEFEAVKRLGKLNIKTPEMNSFSRLLLLYHYLSTGCFSPMAQLIKQIDLSEISENMYIRNTYQTRVHVLMSNIKLNENSLEESREYSKKALESTNILRFQVFSYLTIGNSLLFSNYELAQENFLKGLSISVQNENYNMIFQQALSFLNNVWRKENKWINFESDSIMDLQEQAHSFINFNENSKAKEVLDKLDLLVHNDNELAMHYYLKGRLEQNKASFYSSIEYFKKSNDKFLIRLPLLELQKMGENQKLLELLLL | – | stoichiometry N [3]: 2
AimR-V129C (C71S/C107S/C213S/C275S/C304S/C347S/V129C), labelled with Alexa Fluor 488 and Cy5 (natural protein, SPbeta phage, UniProt O64094 1-386, looked up, Alexa Fluor 488 C5 maleimide or Cy5 maleimide conjugated to Cys129 (double-labeled protein fraction collected), AimR of Bacillus phage SPbeta, full length with six Cys-to-Ser changes and V129C, in pET15b; His tag removed with drICE as for the other mutant proteins; also called dye-labeled protein; source: E. coli BL21 (DE3), purified as the mutant proteins; dye-conjugated and purified on a Source-Q column) MELIRIAMKKDLENDNSLMNKWATVAGLKNPNPLYDFLNHDGKTFNEFSSIVNIVKSQYPDREYELMKDYSLNLDVKTKAARSALEYADANMFFEIEDVLIDSMISSSNMKSKEYGKVYKIHRELSNSCITEFEAVKRLGKLNIKTPEMNSFSRLLLLYHYLSTGNFSPMAQLIKQIDLSEISENMYIRNTYQTRVHVLMSNIKLNENSLEESREYSKKALESTNILRFQVFSYLTIGNSLLFSNYELAQENFLKGLSISVQNENYNMIFQQALSFLNNVWRKENKWINFESDSIMDLQEQAHSFINFNENSKAKEVLDKLDLLVHNDNELAMHYYLKGRLEQNKASFYSSIEYFKKSNDKFLIRLPLLELQKMGENQKLLELLLL | – | binding result [4]: binds
